# Measured values: patent US9688764B2, “Methods of treating breast cancer by administering anti-human prolactin receptor (PRLR) antibodies” (REGENERON PHARMACEUTICALS, INC., priority 2013, dated 2017)
# T1: HEK293/hPRLR (Homo sapiens, UniProt P16471)
# T1 construct: HA; expressed in transfected cells; host or cells: HEK293
# T1 sequence (P16471 25-622): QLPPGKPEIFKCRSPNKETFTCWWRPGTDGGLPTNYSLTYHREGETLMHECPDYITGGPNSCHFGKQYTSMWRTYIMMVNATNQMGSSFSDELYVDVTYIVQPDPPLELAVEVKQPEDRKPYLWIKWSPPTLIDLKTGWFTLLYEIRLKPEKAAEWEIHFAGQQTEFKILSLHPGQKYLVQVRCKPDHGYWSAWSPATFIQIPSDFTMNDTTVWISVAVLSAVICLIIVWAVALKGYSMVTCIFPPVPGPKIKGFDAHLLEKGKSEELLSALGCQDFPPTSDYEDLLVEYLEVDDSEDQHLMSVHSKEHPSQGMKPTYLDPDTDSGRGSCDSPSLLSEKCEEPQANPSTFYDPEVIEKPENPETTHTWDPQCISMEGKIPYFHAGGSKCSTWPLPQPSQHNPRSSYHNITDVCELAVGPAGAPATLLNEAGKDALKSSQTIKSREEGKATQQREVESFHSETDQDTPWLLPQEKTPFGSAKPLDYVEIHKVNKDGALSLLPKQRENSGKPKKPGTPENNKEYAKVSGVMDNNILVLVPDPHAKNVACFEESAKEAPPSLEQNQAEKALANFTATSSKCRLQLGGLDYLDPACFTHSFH
# T2: PRLR-expressing cells (T47D) (Homo sapiens, UniProt P16471)
# T2 construct: a native PRLR expressing cell line (T47D); endogenous in cells; host or cells: T47D
# T2 sequence (P16471 25-622): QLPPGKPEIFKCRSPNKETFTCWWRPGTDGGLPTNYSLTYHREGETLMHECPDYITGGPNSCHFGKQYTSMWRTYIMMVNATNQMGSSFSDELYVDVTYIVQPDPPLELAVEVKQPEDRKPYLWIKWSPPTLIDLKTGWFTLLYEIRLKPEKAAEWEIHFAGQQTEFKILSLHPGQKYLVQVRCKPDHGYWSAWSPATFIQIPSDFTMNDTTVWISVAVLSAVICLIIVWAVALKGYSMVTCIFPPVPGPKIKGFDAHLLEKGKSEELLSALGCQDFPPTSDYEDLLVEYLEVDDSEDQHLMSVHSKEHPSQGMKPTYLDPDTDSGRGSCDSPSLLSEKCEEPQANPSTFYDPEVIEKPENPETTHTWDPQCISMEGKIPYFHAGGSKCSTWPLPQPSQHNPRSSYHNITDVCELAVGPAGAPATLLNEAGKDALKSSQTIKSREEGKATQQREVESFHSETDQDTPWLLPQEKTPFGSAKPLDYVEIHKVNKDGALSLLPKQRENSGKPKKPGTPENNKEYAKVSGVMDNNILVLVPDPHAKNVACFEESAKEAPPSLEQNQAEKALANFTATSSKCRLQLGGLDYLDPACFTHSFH
# What was measured:
# [1] = target: mfPRLR.mmh (monomeric macaca fascicularis PRLR); test: Surface plasmon resonance (Biacore T200), mAb-capture format; type: binding; details: antibody-capture format, analyte mfPRLR.mmh
# mfPRLR.mmh (monomeric macaca fascicularis PRLR), sequence (as listed by the source): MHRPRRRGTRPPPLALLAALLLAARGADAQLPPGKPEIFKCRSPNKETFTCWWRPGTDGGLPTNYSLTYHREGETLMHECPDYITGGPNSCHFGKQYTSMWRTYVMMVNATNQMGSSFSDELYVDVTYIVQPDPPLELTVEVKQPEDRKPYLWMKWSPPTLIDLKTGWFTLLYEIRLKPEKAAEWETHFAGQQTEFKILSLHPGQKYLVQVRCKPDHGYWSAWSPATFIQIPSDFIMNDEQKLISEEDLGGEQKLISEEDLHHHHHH
# Description: (§1) Antibodies, expressed as human IgG1 Fc “[…]” designations), were captured onto an anti-human Fc sensor surface (mAb-capture format), and soluble monomeric (hPRLR.mmh; SEQ ID NO:401, or macaca fascicularis (mf) PRLR.mmh; SEQ ID NO:403) or dimeric (hPRLR.mFc; SEQ ID NO:402) PRLR protein was injected over the sensor surface. Measurements were conducted on a T200 Biacore instrument. Kinetic association (ka) and dissociation (kd) rate constants were determined by processing and fitting the data to a 1:1 binding model using Scrubber 2.0 curve fitting software.
# [2] = target: T3, hPRLR.mFc (soluble dimeric human PRLR) (Homo sapiens, UniProt P16471); test: as above; type: binding; details: antibody-capture format, analyte hPRLR.mFc
# T3 construct: dimeric (hPRLR.mFc)
# T3 sequence (P16471 with tags, fused parts or gaps): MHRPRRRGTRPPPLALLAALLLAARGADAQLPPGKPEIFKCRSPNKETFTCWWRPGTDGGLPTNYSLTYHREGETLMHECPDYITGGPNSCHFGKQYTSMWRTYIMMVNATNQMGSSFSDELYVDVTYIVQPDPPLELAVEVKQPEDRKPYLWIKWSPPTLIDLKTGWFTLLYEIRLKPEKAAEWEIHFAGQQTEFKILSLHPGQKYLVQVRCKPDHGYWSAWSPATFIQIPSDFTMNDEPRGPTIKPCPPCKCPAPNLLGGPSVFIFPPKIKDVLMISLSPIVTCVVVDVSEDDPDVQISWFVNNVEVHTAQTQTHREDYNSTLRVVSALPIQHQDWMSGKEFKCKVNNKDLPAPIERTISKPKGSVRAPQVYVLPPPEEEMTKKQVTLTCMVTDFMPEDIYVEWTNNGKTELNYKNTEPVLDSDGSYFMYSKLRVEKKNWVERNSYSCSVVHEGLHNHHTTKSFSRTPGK
# Description: as §1
# [3] = target: T4, hPRLR.mmh (soluble monomeric human PRLR) (Homo sapiens, UniProt P16471); test: as above; type: binding; details: antibody-capture format, analyte hPRLR.mmh
# T4 construct: soluble monomeric (hPRLR.mmh); mmh (myc-myc-hexahistidine)
# T4 sequence (P16471 with tags, fused parts or gaps): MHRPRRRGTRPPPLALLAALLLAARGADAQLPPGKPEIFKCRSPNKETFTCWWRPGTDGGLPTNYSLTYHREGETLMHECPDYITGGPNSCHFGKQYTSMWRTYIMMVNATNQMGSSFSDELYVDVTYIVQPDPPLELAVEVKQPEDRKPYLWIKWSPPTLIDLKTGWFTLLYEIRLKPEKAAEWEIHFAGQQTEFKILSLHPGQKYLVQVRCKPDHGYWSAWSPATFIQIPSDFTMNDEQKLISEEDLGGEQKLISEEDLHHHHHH
# Description: as §1
# [4] = tested on: HEK293 (non-expressing parental cells); test: FACS cell surface binding
# Description: (§2) The ability of anti-PRLR antibodies to selectively bind PRLR expressing cell lines was next determined. Human, monkey macaca fascicularis, and mouse PRLR constructs with an HA tag were stably introduced into HEK293 cells via Lipofectamine 2000-mediated transfection methodology. Transfectants (HEK293/hPRLR, HEK293/mfPRLR and HEK293/mPRLR) were selected for at least 2 weeks in complete growth media plus G418.
# (§3) Cell surface expression of PRLR on 293/hPRLR cells was assessed via FACS analysis. Briefly, 1×10^5 cells were incubated with 10 μg/ml of Control antibody I, or an isotype control for 30 min on ice in antibody dilution buffer. Following two washes with antibody dilution buffer, cells were incubated with 10 μg/ml of PE conjugated anti-human secondary antibodies for 30 min on ice. Following two additional washes, samples were run on a Hypercyt® cytometer and analyzed in FORECYT™ (IntelliCyt, Albuquerque, N. Mex.). The mean fluorescence intensities (MFI) were expressed as fold change above isotype control levels (background). FACS binding confirmed that Control I selectively bound to 293/hPRLR expressing cells with MFIs that were 30 fold above background (isotype ctrl) levels and less than 2 fold binding on parental cells.
# (§4) Next, the anti-PRLR antibodies of the present invention were tested via FACS for selective binding to the engineered overexpressing PRLR HEK293 cell lines, as well as to non-expressing HEK293 cells and a native PRLR expressing cell line (T47D).
# HEK293/hPRLR = target: T1, HEK293/hPRLR; test: FACS cell surface binding
# Description: as §2, §3, §4
# [5] = target: T2, PRLR-expressing cells (T47D); test: Antibody binding and internalization by PRLR-expressing cells (imaging); type: cell-based; details: [mAb] (0.67 nM); for % Internalization relative to Control I: alexa488 intensity in intracellular vesicles, 1 h at 37° C.; for % Total Binding relative to Control I: whole cell alexa488 intensity at 37° C.
# Description: In this Example, the internalization of anti-PRLR antibodies by PRLR-expressing cells (T47D) was assessed. Briefly, 20,000 T47D cells were seeded in collagen coated 96 well plates. […] Cells were then incubated with alexa488 conjugated anti-hFc Fab secondary antibodies for 30 minutes on ice followed by two additional PBS washes. Antibodies were allowed to internalize for 1 h at 37° C. in internalization buffer (PBS+2% FBS) or remained at 4° C. Cells were fixed in 4% formaldehyde, nuclei were stained with DRAQ5 (Cell signaling), and images were acquired on the ImageXpress micro XL (Molecular Devices). Whole cell alexa488 intensity at 37° C. (Binding) and the alexa488 intensity in the intracellular vesicles at 37° C. (Internalization) were determined via Columbus image analysis software (PerkinElmer).
# HEK293/mfPRLR = test: FACS cell surface binding; design: species or system macaca fascicularis
# HEK293/mfPRLR, sequence (as listed by the source): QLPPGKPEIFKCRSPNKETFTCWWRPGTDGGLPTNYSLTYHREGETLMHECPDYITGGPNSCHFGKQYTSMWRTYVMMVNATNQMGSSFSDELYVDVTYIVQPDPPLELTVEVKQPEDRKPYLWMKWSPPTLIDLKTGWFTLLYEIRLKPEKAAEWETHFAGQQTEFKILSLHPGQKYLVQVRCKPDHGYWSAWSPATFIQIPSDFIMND
# Description: as §2, §3, §4
Molecule,Kd ([1]; 25° C.),Kd ([1]; 37° C.),Kd ([2]; 25° C.),T½ ([2]; 25° C.),Kd ([2]; 37° C.),T½ ([2]; 37° C.),Kd ([3]; 25° C.),T½ ([3]; 25° C.),Kd ([3]; 37° C.),T½ ([3]; 37° C.),FACS Cell Binding (Fold Above Background) (HEK293/hPRLR),% Internalization relative to Control I [5],% Total Binding relative to Control I [5],T½ ([1]; 25° C.),T½ ([1]; 37° C.),FACS Cell Binding (Fold Above Background) [4],FACS Cell Binding (Fold Above Background) (HEK293/mfPRLR)
"H1H6774P: anti-PRLR antibody, human IgG1 Fc; HCVR/LCVR SEQ ID NOs 34/42 (antibody, V domains shown, human IgG1 Fc) VH: EVQLVESGGGLAQPGGSLRLSCVASGFTFSTYWMSWVRQAPGKGLDWVGNIKQDGSEQNYVDSVRGRFTISRDNAKNSLFLQMNSLRAEDTGVYYCATLLTKGDYWGQGTLVTVSS VL: DIQMTQSPSSLSASVGDSVTITCRASQDISNYLDWFQQKPGKAPKSLIYAASILQGGVPSRFSGSGYGTDFTLTISSLQPEDFATYYCRQYKTYPFTFGPGTKVDIK",1.77 nM,5 nM,0.112 nM,2.15 h,0.138 nM,1 h,1.14 nM,0.233 h,2.95 nM,0.067 h,1 Fold Above Background,162.3%,173.7%,0.217 h,0.05 h,1 Fold Above Background,29 Fold Above Background
"H1H6785P: anti-PRLR antibody, human IgG1 Fc; HCVR/LCVR SEQ ID NOs 98/106 (antibody, V domains shown, human IgG1 Fc) VH: EVQLVESGGGLVQPGGSLRLSCAASGFTFSSYEMNWVRQAPGKGLEWISYISSRGGTIYYADSIKGRFTIYRDNARNSLYLQMNSLRAEDTAIYYCARLSGVDIFDIWGQGTMVTVSS VL: DIQMTQSPSSLSASVGDRVTITCRASQGISNYLAWYQQKPGKVPKLLIYFASTLQSGVPSRFSGGGSGTDFTLTISSLQPEDVATYYCQRYNSAPLTFGGGTKVEIK",0.738 nM,1.52 nM,0.231 nM,3.17 h,0.256 nM,1.65 h,0.567 nM,1.13 h,1.14 nM,0.4 h,37 Fold Above Background,169.1%,168.0%,1.15 h,0.433 h,1 Fold Above Background,26 Fold Above Background
"H1H6765P: anti-PRLR antibody, human IgG1 Fc; HCVR/LCVR SEQ ID NOs 18/26 (antibody, V domains shown, human IgG1 Fc) VH: EVQLVESGGGVVRPGGSLRLSCVGSGFSFDDHGMNWVRQGPGKGLEWVSGFNWNGGSTNYAESVKGRFTISRDNARNSLFLQMNSLRAEDTALYYCVRGRSGWFNDAFDVWGPGTMVTVSS VL: EIVLTQSPGTLSLSPGERATLSCRASQTINSNYLAWYRQKPGQTPRLLIYGTSSRATGIPDRFSGSGSGTDFSLTISRLEPEDFAVFYCQQYAGLPTFGPGTKVDIK",0.254 nM,0.0504 nM,0.0392 nM,5.65 h,0.128 nM,1.87 h,0.124 nM,1.7 h,0.292 nM,0.533 h,38 Fold Above Background,186.3%,191.3%,1.43 h,3.58 h,2 Fold Above Background,27 Fold Above Background

# Continued by falling Kd ([1]; 25° C.), values first:
Kd ([1]; 25° C.),Kd ([1]; 37° C.),Kd ([2]; 25° C.),T½ ([2]; 25° C.),Kd ([2]; 37° C.),T½ ([2]; 37° C.),Kd ([3]; 25° C.),T½ ([3]; 25° C.),Kd ([3]; 37° C.),T½ ([3]; 37° C.),FACS Cell Binding (Fold Above Background) (HEK293/hPRLR),% Internalization relative to Control I [5],% Total Binding relative to Control I [5],Molecule,T½ ([1]; 25° C.),T½ ([1]; 37° C.),FACS Cell Binding (Fold Above Background) [4],FACS Cell Binding (Fold Above Background) (HEK293/mfPRLR)
1.05 nM,1.99 nM,0.225 nM,2.7 h,0.217 nM,1.48 h,0.685 nM,0.783 h,1.28 nM,0.267 h,41 Fold Above Background,179.3%,209.9%,"H1H6782P: anti-PRLR antibody, human IgG1 Fc; HCVR/LCVR SEQ ID NOs 66/74; non-blocking (antibody, V domains shown, human IgG1 Fc) VH: EVQLVESGGGLVQPGRSLRLSCAASGFTFDDYAMHWVRQAPGKGLEWVSGIIWNSGHIGYGDSVKGRFTISRDNAKKSLYLQMNSLRAEDTALYYCARDSGRYQSYFDYWGQGTLVTVSS VL: DIQMTQSPSTLSASVGDRVTITCRASHIISSWLAWYQQKPGKAPKVLIFKASSLESGVPSRFSGSGSGTEFTLTISSLQPDDFATYYCQQYNTYSRTFGQGTKVEIK",0.683 h,0.25 h,3 Fold Above Background,32 Fold Above Background
0.986 nM,1.08 nM,0.236 nM,3.18 h,0.226 nM,1.95 h,0.61 nM,1.52 h,0.91 nM,0.617 h,37 Fold Above Background,165.1%,166.2%,"H1H6781P: anti-PRLR antibody, human IgG1 Fc; HCVR/LCVR SEQ ID NOs 50/58 (antibody, V domains shown, human IgG1 Fc) VH: EVQLVESGGDLVQPGESLRLSCTASGFTFNSYEMNWVRQAPGKGLEWVSYISSSGGTKYYVDSVKGRFTISRDNAKKSLYLQMNSLRADDTALYYCARLNGVDVFDIWGQGTMVTVSS VL: DIQMTQSPSSLSASVGDRVTITCRASQDIFNYLAWFQQKPGKVPELLISAASTLQSGVPSRFSGSGSGTYFTLTISSLQPEDIATYYCQRYNSAPLTFGGGTKVEIK",1.37 h,0.717 h,1 Fold Above Background,26 Fold Above Background
